Values belong to the binder of their own block, whether it stands above or below them.
Tests used:
[1] = molecular target: T1, full length human SIRPα on cell membranes (HEK293-SIRPα cells; 293F-SIRPα cells) (human, UniProt P78324 31-504); test: cell based binding FACS on HEK293-SIRPα cells, MFI; curve not visible in the scan
T1 construct: whole, on cells; also called cell surface human SIRPα; cell surface SIRPα

[2] = molecular target: T2, full length human SIRPβ on cell membranes (HEK293-SIRPβ cells; 293F cells expressing human SIRPβ) (human, UniProt O00241 30-398); test: cell based binding FACS on HEK293-SIRPβ cells, MFI; curve not visible in the scan
T2 construct: whole, on cells; also called cell surface human SIRPβ

[3] = molecular target: T3, cynomolgus SIRPα-his protein (cynomolgus); test: indirect ELISA on coated cynomolgus SIRPα-his, OD(450-630); curve not visible in the scan
T3 construct: also called Cyno SIRPα-his; monkey SIRPα
T3 chain: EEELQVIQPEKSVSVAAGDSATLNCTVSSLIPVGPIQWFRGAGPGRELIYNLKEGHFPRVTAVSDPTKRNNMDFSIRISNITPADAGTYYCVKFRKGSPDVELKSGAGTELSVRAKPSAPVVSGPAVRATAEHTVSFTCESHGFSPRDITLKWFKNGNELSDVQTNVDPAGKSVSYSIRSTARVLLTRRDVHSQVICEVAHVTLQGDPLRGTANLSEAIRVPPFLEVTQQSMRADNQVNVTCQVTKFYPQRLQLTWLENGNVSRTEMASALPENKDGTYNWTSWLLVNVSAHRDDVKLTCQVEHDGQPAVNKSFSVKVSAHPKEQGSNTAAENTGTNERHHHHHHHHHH

[4] = molecular target: human SIRPα-isoform 2-his protein (human); test: indirect ELISA on coated human SIRPα-isoform 2-his, OD(450-630); curve not visible in the scan
[5] = molecular target: T4, full length human SIRPγ endogenously expressed on Jurkat cells (human, UniProt Q9P1W8 29-387); test: cell based binding FACS on Jurkat cells (endogenous human SIRPγ), MFI; curve not separable in the scan; paragraph 186 says no binding
T4 construct: whole, on cells; also called human SIRPγ expressed on Jurkat cells

[6] = molecular target: T1, full length human SIRPα on cell …; test: cell based blocking FACS on 293F-SIRPα cells; blocked ligand: biotin-labeled human CD47-Fc, MFI; curve only in faint traces
human SIRPα-his protein [7] = molecular target: T5, human SIRPα-his protein (human, UniProt P78324 31-370); test: competitive ELISA on coated human SIRPα-his; blocked ligand: biotin-labeled human CD47-his, OD(450-630); curve not visible in the scan
[8] = molecular target: T6, recombinant human SIRPα-Fc protein (human, biotin-labeled (sites not given)); test: capture ELISA, antibody captured on anti-mouse IgG F(ab')2, biotin-labeled human SIRPα-Fc in solution, OD(450-630); curve not visible in the scan
T6 construct: also called biotin-labeled human SIRPα-Fc protein

mouse SIRPα-his = molecular target: T7, mouse SIRPα-his (mouse, UniProt P97797 35-363, limits assumed); test: indirect ELISA on coated mouse SIRPα-his, OD(450-630)
T7 chain: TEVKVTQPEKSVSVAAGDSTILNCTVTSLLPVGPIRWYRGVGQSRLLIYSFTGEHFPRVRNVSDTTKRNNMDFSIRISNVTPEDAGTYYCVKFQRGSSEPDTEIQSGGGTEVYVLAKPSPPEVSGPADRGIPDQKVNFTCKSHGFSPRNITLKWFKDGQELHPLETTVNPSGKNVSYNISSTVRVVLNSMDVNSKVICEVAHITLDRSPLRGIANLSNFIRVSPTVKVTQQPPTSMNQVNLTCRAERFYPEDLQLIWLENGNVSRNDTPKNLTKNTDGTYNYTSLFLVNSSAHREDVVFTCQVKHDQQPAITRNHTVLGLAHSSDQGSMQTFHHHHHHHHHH

[9] = molecular target: human SIRPα-V8-his protein (human, UniProt P78324 31-370, limits assumed); test: indirect ELISA on coated human SIRPα-V8-his, OD(450-630)
[10] = molecular target: human SIRPα-isoform 2-his protein (human); test: indirect ELISA on coated human SIRPα-isoform 2-his, OD(450-630)
[11] = molecular target: T1, full length human SIRPα on cell …; test: cell based binding FACS on 293F cells expressing human SIRPα, MFI
[12] = molecular target: T2, full length human SIRPβ on cell …; test: cell based binding FACS on 293F cells expressing human SIRPβ, MFI
human SIRPγ-his protein = human SIRPγ-his protein (human, UniProt Q9P1W8 29-360, limits assumed); test: SPR (Biacore T200), antibody captured on Protein A chip, human SIRPγ-his flowed
[13] = molecular target: T8, human FcRn protein (Cat #FCM-H5286, Acro biosystems Inc.) (human, UniProt P55899 24-297; P61769 21-119); test: SPR (Biacore); human FcRn covalently linked to CM5 chip, antibody flowed from 62.5 µg/ml; pH 6.0
[14] = molecular target: T8, human FcRn protein (Cat #FCM-H5286, …); test: SPR (Biacore); human FcRn covalently linked to CM5 chip, antibody flowed from 62.5 µg/ml; pH 7.4
[15] = molecular target: T1, full length human SIRPα on cell …; test: cell based blocking FACS on 293F-SIRPα cells; blocked ligand: human CD47 protein (CD47-Fc), MFI
human SIRPα-his protein [16] = molecular target: T5, human SIRPα-his protein; test: SPR (Biacore T200); antibody captured on Protein A chip, human SIRPα-his flowed from 200 nM; 1:1 Langmuir fit
human SIRPβ-his protein = human SIRPβ-his protein (human, UniProt O00241 30-371); test: SPR (Biacore T200); antibody captured on Protein A chip, human SIRPβ-his flowed from 200 nM; 1:1 Langmuir fit
[17] = molecular target: T3, cynomolgus SIRPα-his protein; test: indirect ELISA on coated cynomolgus SIRPα-his, OD(450-630); curve flat at the baseline (see non_binding)
[18] = molecular target: human SIRPα protein (soluble, used on 293F-CD47 cells) (human, UniProt P78324 31-370, limits assumed); test: cell based blocking FACS on 293F-CD47 cells; soluble human SIRPα protein blocked from binding cell surface human CD47, MFI
[19] = molecular target: T4, full length human SIRPγ endogenously …; test: cell based binding FACS on Jurkat cells (endogenous human SIRPγ), MFI; curve flat at MFI about 35 up to about 13 nM, rises to about 115 only at the last point (about 67 nM); paragraph 213 says no binding
[20] = molecular target: T8, human FcRn protein (Cat #FCM-H5286, …); test: SPR (Biacore); human FcRn covalently linked to CM5 chip, antibody flowed from 62.5 µg/ml; pH 6.0; pH 6.0
[21] = molecular target: T4, full length human SIRPγ endogenously …; test: cell based binding FACS on Jurkat cells (endogenous human SIRPγ), MFI; curve flat at MFI about 35 up to about 13 nM, rises to about 185 only at the last point (about 67 nM); paragraph 213 says no binding

T2 sequence (O00241 30-398): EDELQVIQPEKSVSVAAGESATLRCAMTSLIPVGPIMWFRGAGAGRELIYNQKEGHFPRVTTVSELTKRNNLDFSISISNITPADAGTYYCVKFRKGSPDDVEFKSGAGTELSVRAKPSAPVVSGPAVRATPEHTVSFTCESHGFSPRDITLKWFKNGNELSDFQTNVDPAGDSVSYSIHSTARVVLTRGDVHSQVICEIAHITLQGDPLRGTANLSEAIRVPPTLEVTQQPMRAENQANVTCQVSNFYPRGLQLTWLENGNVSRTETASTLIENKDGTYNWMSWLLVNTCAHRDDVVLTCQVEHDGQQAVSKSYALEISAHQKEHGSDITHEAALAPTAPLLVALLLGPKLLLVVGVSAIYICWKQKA
T1 sequence (P78324 31-504): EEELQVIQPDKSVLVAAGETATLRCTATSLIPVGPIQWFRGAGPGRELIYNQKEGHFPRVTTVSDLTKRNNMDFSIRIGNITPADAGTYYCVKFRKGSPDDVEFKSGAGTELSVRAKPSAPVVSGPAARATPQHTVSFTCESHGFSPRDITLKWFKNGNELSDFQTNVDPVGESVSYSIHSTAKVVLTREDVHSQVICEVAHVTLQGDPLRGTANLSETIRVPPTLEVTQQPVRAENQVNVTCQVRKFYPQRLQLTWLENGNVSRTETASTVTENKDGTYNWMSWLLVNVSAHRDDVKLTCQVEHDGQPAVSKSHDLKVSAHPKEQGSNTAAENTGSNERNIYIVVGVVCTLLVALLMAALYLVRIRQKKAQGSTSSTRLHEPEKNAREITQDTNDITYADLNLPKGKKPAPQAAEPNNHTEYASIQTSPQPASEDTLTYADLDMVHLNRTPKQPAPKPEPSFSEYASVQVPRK
T4 sequence (Q9P1W8 29-387): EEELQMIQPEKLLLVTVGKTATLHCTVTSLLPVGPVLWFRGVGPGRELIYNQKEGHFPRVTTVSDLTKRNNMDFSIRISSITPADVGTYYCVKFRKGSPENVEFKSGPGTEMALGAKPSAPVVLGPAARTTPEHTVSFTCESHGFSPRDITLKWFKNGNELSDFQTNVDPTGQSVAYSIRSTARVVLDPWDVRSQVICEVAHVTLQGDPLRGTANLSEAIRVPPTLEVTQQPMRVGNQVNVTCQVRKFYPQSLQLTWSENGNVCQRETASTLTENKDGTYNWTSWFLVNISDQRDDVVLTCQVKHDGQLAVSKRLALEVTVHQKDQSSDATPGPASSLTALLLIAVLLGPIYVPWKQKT
Sequence of human SIRPα-isoform 2-his protein (human) (chain, as listed by the source limits assumed): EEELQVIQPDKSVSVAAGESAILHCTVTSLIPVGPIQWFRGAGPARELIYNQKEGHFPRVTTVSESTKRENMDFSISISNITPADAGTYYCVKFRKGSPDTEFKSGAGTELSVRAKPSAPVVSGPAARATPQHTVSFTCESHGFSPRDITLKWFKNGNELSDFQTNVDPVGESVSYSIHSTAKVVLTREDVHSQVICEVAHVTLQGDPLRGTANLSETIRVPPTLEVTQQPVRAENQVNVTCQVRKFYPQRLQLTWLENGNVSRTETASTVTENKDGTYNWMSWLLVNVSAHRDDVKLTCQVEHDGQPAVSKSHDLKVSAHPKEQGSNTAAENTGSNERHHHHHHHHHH
Sequence of human SIRPβ-his protein (O00241 other isoform, or with tags, fused parts or gaps limits assumed): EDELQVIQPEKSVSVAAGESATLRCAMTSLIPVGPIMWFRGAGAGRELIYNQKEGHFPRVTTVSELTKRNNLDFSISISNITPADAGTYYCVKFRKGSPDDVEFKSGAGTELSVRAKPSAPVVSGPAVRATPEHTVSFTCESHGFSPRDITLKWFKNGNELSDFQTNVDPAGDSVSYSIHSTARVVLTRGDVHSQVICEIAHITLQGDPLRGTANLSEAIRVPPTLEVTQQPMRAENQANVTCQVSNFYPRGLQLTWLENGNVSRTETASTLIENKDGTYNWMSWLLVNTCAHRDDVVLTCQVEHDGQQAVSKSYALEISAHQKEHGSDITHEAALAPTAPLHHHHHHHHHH
T5 sequence (P78324 other isoform, or with tags, fused parts or gaps limits assumed): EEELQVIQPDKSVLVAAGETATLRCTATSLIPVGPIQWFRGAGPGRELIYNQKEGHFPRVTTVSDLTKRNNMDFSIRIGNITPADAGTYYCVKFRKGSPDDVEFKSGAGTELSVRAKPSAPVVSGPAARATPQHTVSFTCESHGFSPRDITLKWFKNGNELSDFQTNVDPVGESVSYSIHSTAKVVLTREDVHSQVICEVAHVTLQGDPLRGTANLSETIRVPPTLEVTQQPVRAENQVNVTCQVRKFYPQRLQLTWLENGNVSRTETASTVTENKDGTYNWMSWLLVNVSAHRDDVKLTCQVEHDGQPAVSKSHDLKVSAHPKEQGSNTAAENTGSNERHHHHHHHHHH
Sequence of human SIRPα protein (soluble, used on 293F-CD47 cells) (P78324 31-370 limits assumed): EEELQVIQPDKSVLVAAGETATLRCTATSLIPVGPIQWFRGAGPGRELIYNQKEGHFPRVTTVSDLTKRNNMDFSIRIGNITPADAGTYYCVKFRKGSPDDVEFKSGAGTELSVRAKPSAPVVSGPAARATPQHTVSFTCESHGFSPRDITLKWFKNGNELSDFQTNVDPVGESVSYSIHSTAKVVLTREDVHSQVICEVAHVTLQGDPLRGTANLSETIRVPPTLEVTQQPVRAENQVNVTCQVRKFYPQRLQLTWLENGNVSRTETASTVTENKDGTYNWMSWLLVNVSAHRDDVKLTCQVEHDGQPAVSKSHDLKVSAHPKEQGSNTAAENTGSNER
Sequence of human SIRPγ-his protein (Q9P1W8 29-360 limits assumed): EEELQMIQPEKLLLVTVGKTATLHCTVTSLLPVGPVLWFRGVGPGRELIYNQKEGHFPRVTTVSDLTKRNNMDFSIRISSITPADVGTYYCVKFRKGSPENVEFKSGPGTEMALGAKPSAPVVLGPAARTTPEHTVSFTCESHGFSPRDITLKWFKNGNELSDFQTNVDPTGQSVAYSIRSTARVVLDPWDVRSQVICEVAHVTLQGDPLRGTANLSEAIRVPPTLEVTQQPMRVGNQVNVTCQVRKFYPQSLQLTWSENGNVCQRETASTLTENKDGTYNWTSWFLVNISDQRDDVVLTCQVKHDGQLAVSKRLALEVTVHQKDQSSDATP
Sequence of human SIRPα-V8-his protein (P78324 other isoform, or with tags, fused parts or gaps limits assumed): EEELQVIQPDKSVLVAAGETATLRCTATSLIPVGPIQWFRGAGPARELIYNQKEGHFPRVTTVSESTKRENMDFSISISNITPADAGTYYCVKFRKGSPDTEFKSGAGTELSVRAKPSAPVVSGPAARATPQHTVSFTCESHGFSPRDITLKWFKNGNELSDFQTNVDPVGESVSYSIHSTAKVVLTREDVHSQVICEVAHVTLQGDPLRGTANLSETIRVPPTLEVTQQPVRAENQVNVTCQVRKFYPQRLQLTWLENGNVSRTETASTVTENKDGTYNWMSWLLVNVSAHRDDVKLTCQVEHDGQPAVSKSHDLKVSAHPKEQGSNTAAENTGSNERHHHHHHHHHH
T6 sequence (chain, as listed by the source limits assumed): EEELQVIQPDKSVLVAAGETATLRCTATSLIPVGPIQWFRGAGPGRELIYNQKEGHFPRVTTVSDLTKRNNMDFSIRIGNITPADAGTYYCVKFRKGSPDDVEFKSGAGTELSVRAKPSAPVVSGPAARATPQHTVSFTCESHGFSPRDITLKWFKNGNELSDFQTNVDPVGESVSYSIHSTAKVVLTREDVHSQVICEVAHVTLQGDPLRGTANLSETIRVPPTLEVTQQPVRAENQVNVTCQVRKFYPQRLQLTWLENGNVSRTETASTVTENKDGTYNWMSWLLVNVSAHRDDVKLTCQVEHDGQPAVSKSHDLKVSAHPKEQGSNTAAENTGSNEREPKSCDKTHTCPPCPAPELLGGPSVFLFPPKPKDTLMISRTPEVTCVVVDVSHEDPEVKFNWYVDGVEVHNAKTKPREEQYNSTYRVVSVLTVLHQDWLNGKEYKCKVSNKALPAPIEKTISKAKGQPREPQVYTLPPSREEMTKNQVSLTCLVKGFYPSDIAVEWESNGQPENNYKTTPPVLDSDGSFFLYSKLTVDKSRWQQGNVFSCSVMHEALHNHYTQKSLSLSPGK

EC50 [1]: 0.842 nM
EC50 [2]: 0.689 nM
EC50 [3]: 0.131 nM
EC50 [4]: 0.162 nM
EC50 [5]: 0.5 nM
IC50 [6]: 0.853 nM
IC50 (human SIRPα-his protein [7]): 2.68 nM
EC50 [8]: 0.103 nM
B1: E1H10B7C7 (antibody, V domains shown)
VH: QVQLVQSGAEVKKPGASVKVSCKASGYTFTSYAMQWVRQAPGQRLEWMGWIIAGNGDTKYSQNFQDRVTLTRDTSANTAYMDLSGLRSEDTAVYYCARGSGFSGYGYFDKWGQGTLVTVSS
VL: DIQMTQSPSSLSASVGDRVTITCRASHSISSYLNWYQQKPGKVPKLLIYASSSLQSGVPSRFSGNGSGTDFTLIISSLQPEDFATYYCQQSHSIPLTFGGGTKVEIK

binding result (mouse SIRPα-his): no binding (tested: ~67 nM)
EC50 [9]: 0.179 nM
EC50 [10]: 0.106 nM
EC50 [11]: 0.27 nM
EC50 [12]: 0.2 nM
Kd [13]: 26.8 nM
Kd [14]: 651 nM
IC50 [15]: 0.573 nM
Kd (human SIRPα-his protein [16]): 0.824 nM
koff (human SIRPα-his protein [16]): 0.00105 s⁻¹
kon (human SIRPα-his protein [16]): 1.28e+06 M⁻¹ s⁻¹
Kd (human SIRPβ-his protein): 2.81 nM
koff (human SIRPβ-his protein): 0.002 s⁻¹
kon (human SIRPβ-his protein): 713000 M⁻¹ s⁻¹
EC50 [17]: 86.7 nM
IC50 [18]: 0.264 nM
EC50 [19]: ~38.6 nM
B2: E1F1B1C3-CDRV1-IgG1 (YTE) (antibody)
heavy: QVQLVQSGAEVKKPGASVKVSCKASGYTFTSNAMHWVRQVPGQGLEWMGWIKAGNAEIKYSQKFQGRVTITRDTSATTAYMELSSLRSEDTAVYYCARGDYYYYYMDVWGKGTTVTVSSASTKGPSVFPLAPSSKSTSGGTAALGCLVKDYFPEPVTVSWNSGALTSGVHTFPAVLQSSGLYSLSSVVTVPSSSLGTQTYICNVNHKPSNTKVDKKVEPKSCDKTHTCPPCPAPEAQGGPSVFLFPPKPKDTLYITREPEVTCVVVDVSHEDPEVKFNWYVDGVEVHNAKTKPREEQYNSTYRVVSVLTVLHQDWLNGKEYKCQVSNKALPAPIEKTISKAKGQPREPQVYTLPPSRDELTKNQVSLTCLVKGFYPSDIAVEWESNGQPENNYKTTPPVLDSDGSFFLYSKLTVDKSRWQQGNVFSCSVMHEALHNHYTQKSLSLSPG
light: DIQVTQSPSSLSASVGDRVTITCRASQSISDFLNWYQQKPGKAPKLLIHAASSLQAGVPSRFSGSGSGTDFSLTINSLQPEDFATYYCQQSYSTPLSFGGGTKVEIKRTVAAPSVFIFPPSDEQLKSGTASVVCLLNNFYPREAKVQWKVDNALQSGNSQESVTEQDSKDSTYSLSSTLTLSKADYEKHKVYACEVTHQGLSSPVTKSFNRGEC
binding result (human SIRPγ-his protein): no binding (tested: antigen starting at 200 nM)

binding result (mouse SIRPα-his): no binding (tested: ~67 nM)
EC50 [9]: 0.148 nM
EC50 [10]: 0.129 nM
EC50 [11]: 0.27 nM
EC50 [12]: 0.248 nM
Kd [20]: 56.7 nM
IC50 [15]: 0.488 nM
Kd (human SIRPα-his protein [16]): 0.344 nM
koff (human SIRPα-his protein [16]): 0.000402 s⁻¹
kon (human SIRPα-his protein [16]): 1.17e+06 M⁻¹ s⁻¹
Kd (human SIRPβ-his protein): 1.17 nM
koff (human SIRPβ-his protein): 0.000907 s⁻¹
kon (human SIRPβ-his protein): 773000 M⁻¹ s⁻¹
EC50 [17]: ~2930 nM
IC50 [18]: 0.27 nM
EC50 [21]: ~954 nM
B3: E1F1B1C3-CDRV1-IgG1 (antibody)
heavy: not shown
light: B2 light
binding result (human SIRPγ-his protein): no binding (tested: antigen starting at 200 nM)
